# System: Escherichia coli TOP10
# Assay: shrunken log2 fold change of peptide-encoding DNA abundance (4.5 h post-induction vs induction); higher = less antimicrobial activity (less host growth inhibition)
# Settings: time post-induction: 4.5 h; library: site-saturation at positions 5, 18, 19, 20
# 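Also: peptides expressed intracellularly from a pBAD plasmid library in pooled LB shake-flask culture, induced with 0.3% L-arabinose, DNA abundance read by NGS, three biological replicates, DESeq2 with apeglm shrinkage.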
row,Sequence,shrunken log2 fold change
1,RRIRERPPRLPRPRPRPDACPRP,-0.0198
2,RRIRMRPPRLPRPRPRPADDPRP,-0.00235
3,RRIRIRPPRLPRPRPRPHCEPRP,-1.54
4,RRIRDRPPRLPRPRPRPYWRPRP,-0.0818
5,RRIRVRPPRLPRPRPRPKYQPRP,-0.876
6,RRIRLRPPRLPRPRPRPNDRPRP,-0.422
7,RRIRFRPPRLPRPRPRPITCPRP,-1.15
8,RRIRQRPPRLPRPRPRPMHQPRP,-0.195
9,RRIRSRPPRLPRPRPRPWRLPRP,0.0899
10,RRIRMRPPRLPRPRPRPYSEPRP,0.171
11,RRIRVRPPRLPRPRPRPYLTPRP,-0.575
12,RRIRLRPPRLPRPRPRPGKPPRP,-0.0724
13,RRIRARPPRLPRPRPRPLKFPRP,-0.38
14,RRIRWRPPRLPRPRPRPGNCPRP,-0.0763
15,RRIRMRPPRLPRPRPRPFNYPRP,-0.559
16,RRIRSRPPRLPRPRPRPPISPRP,-0.0261
17,RRIRFRPPRLPRPRPRPSNAPRP,-0.165
18,RRIRERPPRLPRPRPRPPLTPRP,-0.0766
19,RRIRHRPPRLPRPRPRPYPSPRP,-0.457
20,RRIRARPPRLPRPRPRPNSCPRP,-0.205
21,RRIRTRPPRLPRPRPRPRLDPRP,-0.0828
22,RRIRQRPPRLPRPRPRPCGSPRP,-0.000687
23,RRIRLRPPRLPRPRPRPYQIPRP,-0.489
24,RRIRARPPRLPRPRPRPKWQPRP,0.0511
25,RRIRQRPPRLPRPRPRPYQSPRP,-0.176

row,Sequence,shrunken log2 fold change
1,RRIRDRPPRLPRPRPRPHDEPRP,0.167
2,RRIRQRPPRLPRPRPRPSCCPRP,-0.408
3,RRIRRRPPRLPRPRPRPVNHPRP,0.177
4,RRIRYRPPRLPRPRPRPFGYPRP,-1.39
5,RRIRDRPPRLPRPRPRPTPLPRP,0.484
6,RRIRVRPPRLPRPRPRPCEKPRP,-0.0491
7,RRIRVRPPRLPRPRPRPNKVPRP,-0.271
8,RRIRYRPPRLPRPRPRPHSLPRP,-0.184
9,RRIRHRPPRLPRPRPRPRMDPRP,0.0986
10,RRIRDRPPRLPRPRPRPFTRPRP,-0.242
11,RRIRARPPRLPRPRPRPWLWPRP,0.435
12,RRIRYRPPRLPRPRPRPGGGPRP,0.64
13,RRIRFRPPRLPRPRPRPEWNPRP,-0.21
14,RRIRHRPPRLPRPRPRPVQRPRP,-0.0182
15,RRIRMRPPRLPRPRPRPEEFPRP,0.0141
16,RRIRTRPPRLPRPRPRPTCQPRP,0.234
17,RRIRYRPPRLPRPRPRPDYHPRP,-0.0195
18,RRIRVRPPRLPRPRPRPMLRPRP,-0.102
19,RRIRHRPPRLPRPRPRPGVCPRP,-0.263
20,RRIRHRPPRLPRPRPRPHIHPRP,-0.328
21,RRIRDRPPRLPRPRPRPEIKPRP,1.54
22,RRIRFRPPRLPRPRPRPMNGPRP,-0.0885
23,RRIRNRPPRLPRPRPRPQIIPRP,-0.106
24,RRIRWRPPRLPRPRPRPYELPRP,-0.0904
25,RRIRSRPPRLPRPRPRPCYMPRP,-0.562

row,Sequence,shrunken log2 fold change
1,RRIRHRPPRLPRPRPRPMYIPRP,-0.0294
2,RRIRKRPPRLPRPRPRPFTQPRP,-0.332
3,RRIRHRPPRLPRPRPRPNQFPRP,-0.789
4,RRIRFRPPRLPRPRPRPRNIPRP,-0.313
5,RRIRNRPPRLPRPRPRPTSIPRP,-0.531
6,RRIRTRPPRLPRPRPRPCWCPRP,-0.0474
7,RRIRMRPPRLPRPRPRPVRVPRP,1.74
8,RRIRRRPPRLPRPRPRPKASPRP,0.183
9,RRIRRRPPRLPRPRPRPAFHPRP,0.083
10,RRIRPRPPRLPRPRPRPIFPPRP,0.0704
11,RRIRGRPPRLPRPRPRPNCKPRP,0.21
12,RRIRNRPPRLPRPRPRPLREPRP,0.128
13,RRIRFRPPRLPRPRPRPDFGPRP,0.0422
14,RRIRERPPRLPRPRPRPPREPRP,0.87
15,RRIRNRPPRLPRPRPRPNPPPRP,0.143
16,RRIRARPPRLPRPRPRPVKAPRP,0.0269
17,RRIRMRPPRLPRPRPRPKLCPRP,0.438
18,RRIRLRPPRLPRPRPRPMYMPRP,-0.295
19,RRIRIRPPRLPRPRPRPPWPPRP,0.397
20,RRIRERPPRLPRPRPRPFRWPRP,0.0329
21,RRIRTRPPRLPRPRPRPAKDPRP,-0.399
22,RRIRCRPPRLPRPRPRPAADPRP,0.341
23,RRIRVRPPRLPRPRPRPITKPRP,0.0714
24,RRIRDRPPRLPRPRPRPFGLPRP,-0.259
25,RRIRNRPPRLPRPRPRPCHLPRP,-0.146

row,Sequence,shrunken log2 fold change
1,RRIRCRPPRLPRPRPRPCFTPRP,-0.552
2,RRIRWRPPRLPRPRPRPFHKPRP,-0.28
3,RRIRQRPPRLPRPRPRPICRPRP,0.0232
4,RRIRVRPPRLPRPRPRPCFEPRP,-0.0173
5,RRIRIRPPRLPRPRPRPGPAPRP,0.383
6,RRIRTRPPRLPRPRPRPVVSPRP,0.075
7,RRIRVRPPRLPRPRPRPECMPRP,0.283
8,RRIRCRPPRLPRPRPRPTRDPRP,0.104
9,RRIRDRPPRLPRPRPRPTRFPRP,0.0657
10,RRIRCRPPRLPRPRPRPRHRPRP,-0.466
11,RRIRNRPPRLPRPRPRPMSEPRP,-0.0254
12,RRIRYRPPRLPRPRPRPDHWPRP,-0.166
13,RRIRSRPPRLPRPRPRPGVAPRP,0.42
14,RRIRVRPPRLPRPRPRPLLPPRP,0.328
15,RRIRNRPPRLPRPRPRPLRLPRP,0.357
16,RRIRNRPPRLPRPRPRPTLQPRP,0.0909
17,RRIRERPPRLPRPRPRPSWNPRP,-0.701
18,RRIRTRPPRLPRPRPRPLWHPRP,-0.221
19,RRIRGRPPRLPRPRPRPHRMPRP,-0.101
20,RRIRPRPPRLPRPRPRPFWMPRP,-0.00291
21,RRIRRRPPRLPRPRPRPSMGPRP,-0.0183
22,RRIRGRPPRLPRPRPRPGSWPRP,0.938
23,RRIRTRPPRLPRPRPRPVTKPRP,0.0906
24,RRIRSRPPRLPRPRPRPQETPRP,0.0728
25,RRIRVRPPRLPRPRPRPGKAPRP,-0.00584

row,Sequence,shrunken log2 fold change
1,RRIRWRPPRLPRPRPRPQTAPRP,0.282
2,RRIRFRPPRLPRPRPRPWRYPRP,-0.161
3,RRIRHRPPRLPRPRPRPHQLPRP,-0.196
4,RRIRPRPPRLPRPRPRPYKPPRP,-0.481
5,RRIRTRPPRLPRPRPRPDGWPRP,0.468
6,RRIRKRPPRLPRPRPRPMVLPRP,-0.191
7,RRIRYRPPRLPRPRPRPMRYPRP,-0.114
8,RRIRTRPPRLPRPRPRPRCTPRP,-0.00178
9,RRIRVRPPRLPRPRPRPSDDPRP,-0.417
10,RRIRTRPPRLPRPRPRPISSPRP,-0.0114
11,RRIRLRPPRLPRPRPRPEKRPRP,-0.148
12,RRIRWRPPRLPRPRPRPDGWPRP,1.12
13,RRIRRRPPRLPRPRPRPRMTPRP,0.295
14,RRIRLRPPRLPRPRPRPNDSPRP,-0.0215
15,RRIRDRPPRLPRPRPRPTHLPRP,-0.175
16,RRIRYRPPRLPRPRPRPPCTPRP,-0.33
17,RRIRVRPPRLPRPRPRPDQIPRP,-0.0895
18,RRIRERPPRLPRPRPRPTKNPRP,-0.187
19,RRIRIRPPRLPRPRPRPKWQPRP,-0.114
20,RRIRNRPPRLPRPRPRPPRYPRP,0.0834
21,RRIRNRPPRLPRPRPRPKGMPRP,-0.112
22,RRIRRRPPRLPRPRPRPLVTPRP,-0.0631
23,RRIRARPPRLPRPRPRPEDYPRP,-0.0332
24,RRIRARPPRLPRPRPRPEVQPRP,0.76
25,RRIRWRPPRLPRPRPRPQFHPRP,-0.275

row,Sequence,shrunken log2 fold change
1,RRIRDRPPRLPRPRPRPEQEPRP,-0.0197
2,RRIRYRPPRLPRPRPRPMRIPRP,0.0121
3,RRIRARPPRLPRPRPRPPNWPRP,0.59
4,RRIRRRPPRLPRPRPRPYGVPRP,0.037
5,RRIRCRPPRLPRPRPRPQMRPRP,0.611
6,RRIRARPPRLPRPRPRPTSYPRP,-0.0752
7,RRIRRRPPRLPRPRPRPDEMPRP,0.753
8,RRIRARPPRLPRPRPRPHKWPRP,0.192
9,RRIRCRPPRLPRPRPRPCMEPRP,-0.681
10,RRIRDRPPRLPRPRPRPLQFPRP,0.0246
11,RRIRGRPPRLPRPRPRPINLPRP,-0.0974
12,RRIRCRPPRLPRPRPRPVADPRP,0.181
13,RRIRCRPPRLPRPRPRPRPSPRP,0.695
14,RRIRARPPRLPRPRPRPPSHPRP,0.351
15,RRIRKRPPRLPRPRPRPANSPRP,-0.0423
16,RRIRNRPPRLPRPRPRPPYKPRP,-0.311
17,RRIRMRPPRLPRPRPRPYDQPRP,0.102
18,RRIRCRPPRLPRPRPRPIIMPRP,-0.888
19,RRIRCRPPRLPRPRPRPTQEPRP,0.121
20,RRIRQRPPRLPRPRPRPPPYPRP,-0.0506
21,RRIRRRPPRLPRPRPRPCYFPRP,-0.0239
22,RRIRDRPPRLPRPRPRPTQRPRP,0.746
23,RRIRCRPPRLPRPRPRPVCSPRP,-0.0747
24,RRIRPRPPRLPRPRPRPDNDPRP,0.0931
25,RRIRARPPRLPRPRPRPQEAPRP,0.197
